Source: patent US20040037830A1

Target: IL-8 receptors on human neutrophils
Experiment: 125I-IL-8 competition with unlabelled IL-8, Scatchard analysis, human neutrophils

- binding sites/cell (binding sites/cell): 31000
Substance: human 72 amino acid IL-8 (interleukin-8), recombinant, made in E. coli (from UniProt P10145 28-99) (ligand)
